Laboratory results: publication PMC2172336

Target: Kss1-7m3-GBD (Kss1-7m3 fused to the Gal4 DNA-binding domain) (S. cerevisiae) (UniProt P14681)
Test: two-hybrid

Kss1-7m3-GBD (Kss1-7m3 fused to the Gal4 DNA-binding domain) (S. cerevisiae), sequence (P14681 whole entry, the tested form may be a part): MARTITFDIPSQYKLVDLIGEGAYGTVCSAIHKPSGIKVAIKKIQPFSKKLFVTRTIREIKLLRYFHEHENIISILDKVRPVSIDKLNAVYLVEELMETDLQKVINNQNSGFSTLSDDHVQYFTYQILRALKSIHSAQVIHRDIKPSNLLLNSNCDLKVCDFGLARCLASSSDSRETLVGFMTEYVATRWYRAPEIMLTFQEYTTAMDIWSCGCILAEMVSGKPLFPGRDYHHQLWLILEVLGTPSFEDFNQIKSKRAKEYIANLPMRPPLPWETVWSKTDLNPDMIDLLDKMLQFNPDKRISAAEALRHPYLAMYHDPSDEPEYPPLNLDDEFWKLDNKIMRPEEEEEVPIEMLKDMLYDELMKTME

B1: Ste12-GAD (Ste12 fused to the Gal4 transcriptional activation domain) (natural protein)
chain: MKVQITNSRTEEILKVQANNENDEVSKATPGEVEESLRLIGDLKFFLATAPVNWQENQIIRRYYLNSGQGFVSCVFWNNLYYITGTDIVKCCLYRMQKFGREVVQKKKFEEGIFSDLRNLKCGIDATLEQPKSEFLSFLFRNMCLKTQKKQKVFFWFSVAHDKLFADALERDLKRESLNQPSTTKPVNEPALSFSYDSSSDKPLYDQLLQHLDSRRPSSTTKSDNSPPKLESENFKDNELVTVTNQPLLGVGLMDDDAPESPSQINDFIPQKLIIEPNTLELNGLTEETPHDLPKNTAKGRDEEDFPLDYFPVSVEYPTEENAFDPFPPQAFTPAAPSMPISYDNVNERDSMPVNSLLNRYPYQLSVAPTFPVPPSSSRQHFMTNRDFYSSNNNKEKLVSPSDPTSYMKYDEPVMDFDESRPNENCTNAKSHNSGQQTKQHQLYSNNFQQSYPNGMVPGYYPKMPYNPMGGDPLLDQAFYGADDFFFPPEGCDNNMLYPQTATSWNVLPPQAMQPAPTYVGRPYTPNYRSTPGSAMFPYMQSSNSMQWNTAVSPYSSRAPSTTAKNYPPSTFYSQNINQYPRRRTVGMKSSQGNVPTGNKQSVGKSAKISKPLHIKTSAYQKQYKINLETKARPSAGDEDSAHPDKNKEISMPTPDSNTLVVQSEEGGAHSLEVDTNRRSDKNLPDAT
- fold above background (two-hybrid reporter): 6 fold
